What was measured:
Assay in all cases: thermal shift assay, 1 mM peptide
[1] = biological target: Trx-2α (thioredoxin-tagged HIF-2α 1-360, bHLH-PASA-PASB) (UniProt Q99814)
[2] = biological target: 2α PASB (HIF-2α PASB domain, 240-350) (UniProt Q99814)
[3] = biological target: 1α PASB (HIF-1α PASB domain, 238-349) (UniProt Q16665)
[4] = biological target: GST-1β (GST-tagged HIF-1β 1-474, isoform 2, Δ77-91) (UniProt P27540)

Sequence of 2α PASB (HIF-2α PASB domain, 240-350) (Q99814 240-350): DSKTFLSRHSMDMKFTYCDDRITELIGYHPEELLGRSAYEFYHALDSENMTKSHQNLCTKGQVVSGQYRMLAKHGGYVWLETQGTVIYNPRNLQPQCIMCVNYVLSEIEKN
Sequence of 1α PASB (HIF-1α PASB domain, 238-349) (Q16665 238-349): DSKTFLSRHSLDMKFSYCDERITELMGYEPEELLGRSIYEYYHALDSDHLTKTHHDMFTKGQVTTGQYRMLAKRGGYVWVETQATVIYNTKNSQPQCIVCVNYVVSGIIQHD
Sequence of Trx-2α (thioredoxin-tagged HIF-2α 1-360, bHLH-PASA-PASB) (Q99814 1-360): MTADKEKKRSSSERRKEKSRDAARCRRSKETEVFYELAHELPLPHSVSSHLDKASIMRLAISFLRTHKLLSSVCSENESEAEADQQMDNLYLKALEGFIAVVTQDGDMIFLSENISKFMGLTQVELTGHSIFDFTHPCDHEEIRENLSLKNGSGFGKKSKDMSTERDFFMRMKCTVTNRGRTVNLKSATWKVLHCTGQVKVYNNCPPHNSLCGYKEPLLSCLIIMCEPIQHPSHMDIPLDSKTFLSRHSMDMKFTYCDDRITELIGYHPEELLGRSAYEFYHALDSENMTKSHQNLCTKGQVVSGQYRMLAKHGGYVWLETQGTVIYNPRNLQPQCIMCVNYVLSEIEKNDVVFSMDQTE

Row | ΔTm [1] [° C.] | ΔTm [2] [° C.] | ΔTm [3] [° C.] | ΔTm [4] [° C.] | Binder
1 | -2 | -2.5 | -0.5 | – | SGWEMIQRR (cyclic peptide (first amino acid joined to the last)) [cyclo-… (SEQ ID NO 5)]
2 | – | – | – | -0.5 | CRVIIF (cyclic peptide (cyclo-, first amino acid joined to the last)) [cyclo-CRVIIF (SEQ ID NO 4)]

— US20190033318A1
